The text below walks through data of publication PMC6838142, “Nano-Antagonist Alleviates Inflammation and Allows for MRI of Atherosclerosis” (Nanotheranostics, 2019).

“Also recorded” adds a separate entry of the source.

The test system of one data set is BMDMs. Kind of data set: GSH/GSSG assay in LPS-primed BMDMs. The class given is cell-based, mouse. The following applies: LPS-primed (100 ng/mL) BMDMs, 5 µM CCTV vs vehicle, 8 experiments.
The nature of data set [1]: Dynamic light scattering of nanoparticles. The class given is physicochemical. The following applies: Malvern Zetasizer Nano S; for Size (Mean Z average): hydrodynamic diameter. The procedure:
Lipid-peptide conjugates were synthesized from either DSPE-PEG-CO2H or DSPE-PEG-MAL using peptides derived using SVM prediction platform and listed in Supplementary Table S2. The peptides were conjugated to either the N-terminus or via sulfhydryl groups as depicted in Figure 1E. Lipid films from both PEGylated derivatives were prepared by evaporation under nitrogen gas, from 1 µM of lipid solution in chloroform. Tetrapeptides were custom-synthesized by Genscript. 5 µmol of peptide solutions in water:dimethylformamide (1:1) were prepared via a brief bath sonication. […] PEGylated lipids prepared above were sonicated (10 min, 300 W, room temperature) in 5 mL of MES (pH 6, 100 mM) for DSPE-PEG-CO2H and in 5 mL of HEPES buffered saline [HBS] (pH 7.2, 100 mM, 154 mM NaCl) for DSPE-PEG-MAL. Next, DSPE-PEG-CO2H was activated by the addition of 2 mg of EDC (20 mg/mL in water) and 5 mg of sulfo-NHS (10 mg/mL in water). This was sonicated at 15 W for 10 min in a temperature controlled bath at 30 °C. Then, peptide solutions/suspensions were added to the resulting DSPE-PEG-NHS or previously prepared DSPE-PEG-MAL and stirred at room temperature for 4 h. The reaction with DSPE-PEG-NHS was quenched by the addition of 100 µL of 0.5 M of NH2OH in HBS, plus 1 mM EDTA. The reaction with DSPE-PEG-MAL was quenched by the addition of 7 µL of 2-mercaptoethanol. The solution was freezed at -80 °C and lyophilized. Next, lipid-peptide conjugates were extracted with chloroform (3 x 2 mL) and centrifuged at 4000 g x 5 min. Combined extract supernatants were evaporated under N2 gas and sonicated (10 min, 100 W) in 0.5-1 mL of water at room temperature. This raw product was purified by size […] chromatography as follows. Millipore Vantage column (10 x 500 mm) was packed with Sepharose 4B in deionized water under flow rate of 0.5 mL/min. Next, 0.5 mL of raw nanoparticle preparation was injected into the column and 0.5 mL fractions were collected at 0.5 mL/min simultaneously with UV detection at 190, 214, 250 and 280 nm using the Bio Rad DuoFlow system equipped with BioLogic QuadTec UV/Vis detector. See Supplementary Figure S2 for representative chromatograms. Combined fractions 15-31 were frozen and lyophilized. Particles used in signalling In vitro work were prepared by reconstitution of lyophilizates in PBS or HBS buffer via sonication. Particles used in reporter, flow cytometry and microscopy experiments were prepared by addition of 1% (by weight) of Rhodamine-PE in ethanol followed by reconstitution as described above. Particles used in magnetic resonance imaging (MRI) and time-resolved fluorescence (TRF) assays were prepared by addition of 10-20% (by weight) of gadolinium or europium chelate-lipids followed by reconstitution as above. Gadolinium-DTPA (18:0 PE-DTPA) was obtained from Avanti Polar Lipids and europium cryptate-NHS was obtained from Aat Bioquest (Supplementary Table S1). Europium cryptate-NHS was further conjugated to phosphatidylethanolamine (PE) to obtain Eu-cryptate-PE according to published and well established protocols. To confirm peptide conjugation, the powder was reconstituted in 1 mL of chloroform and analyzed with TLC (eluent chloroform:methanol:water 65:25:4) detecting with Molybdenum blue (Supplementary Figure S3A) or Dragendorff reagent (Supplementary Figure S3B). Nanoparticles were characterized by dynamic light scattering using Malvern Zetasizer Nano S (Supplementary Table S3). The presence of the peptide bond (N-H) and aliphatic C-H and C-C stretches (lipids) was confirmed by infrared (IR) spectroscopy. Nanoparticles were isolated as a homogeneous population (peak) in gel-filtration (see above) and were used without additional purification.

Data set [2] concerns caspase 3 and heme oxygenase (HO-1) proteins in RAW cells. Kind of data set: Immunoblot of active caspase 3 and HO-1. The format is cell-based, mouse. The following applies: 1 µM nanoparticles, 3 h. The procedure: Immunoblotting was performed as previously described with the following modifications. Briefly, cell lysates were obtained in SDS lysis buffer consisting of 2% SDS, 50 mM Tris-HCl (pH 6.8), 100 mM DTT, 5% Ficoll 400, 0.0001% bromophenol blue and a cocktail of protease inhibitors. Lysates were sonicated on ice before heating at 97 °C for 7 min to completely denature the protein. Protein concentration was determined using IR spectroscopy (which is insensitive to high SDS and DTT concentrations) with a Millipore DirectDetect spectrometer. Lysates were equally loaded at 10-15 µg per lane on BioRad TGX Criterion gels (4-15%) and resolved at 300 V in Tris-Glycine running buffer. Proteins were transferred on nitrocellulose membranes using the BioRad TransBlot turbo according to the manufacturer's instructions. Membranes were blocked in fish serum (Aqua Block) or 5% nonfat dry milk in TBS-T (0.05% Tween 20) and probed overnight at 4 °C with primary antibodies as indicated in Supplementary Table S1. The membranes were washed in TBS-T and incubated with secondary antibodies for 1 h at room temperature. After washing, semi-quantitative visualization of the proteins of interest was enabled using an enhanced chemiluminescence reagent as previously described and the Azure C400 western blot imaging system.
N-acetylcysteine (NAC) served as an antioxidant control. β-Actin was used as a loading control. B) Gene expression analysis in RAW cells treated with 1 µM of vehicle, CCTV and VTCC (peptide nanoparticle control) for 24 h. mRNA expression of mannose receptor (Mrc1), nitric oxide synthase 2 (Nos2), tumor necrosis factor (Tnf), interleukin-1beta (Il1b), and interleukin-6 (Il6) were analyzed. C) Cytokines in cell culture supernatants were analyzed as indicated. D) Schematic representation of transcriptional activation of primary and secondary inflammatory response to lipopolysaccharide (LPS). E) Immunoblot analysis of dose-dependent suppression of IL-1β and HO-1 production by CCTV with and without stimulation by 100 ng/mL LPS for 16 h in bone marrow derived macrophages (BMDMs). GAPDH served as a loading control. F) Chemotaxis assays in bone marrow derived monocytes treated with 5 µM vehicle, CCTV, VTCC or left untreated. Chemotaxis was stimulated by introducing a gradient of recombinant mouse CCL2. Forty (out of 150-300) cell migration tracks are presented for simplicity. Metrics of chemotactic behaviour i.e. velocity, distance travelled, and chemotactic index were quantified as presented in bar graphs. G) BMDMs were pre-treated for 6 h with 5 µM CCTV or VTCC followed by 500 nM CCL2 for the indicated times. […] P values are calculated by t-test and error bars are standard errors of three independent experiments.
In general terms: In western blotting, separated proteins are transferred to a membrane and probed.

The subject of data set [3] is interleukin-1 beta (IL-1β). The following applies: CANTOS clinical trial, cited from earlier work. The text has this:
Inflammation is a process of immune system activation that is often accompanied by increased migration of immune cells to a site of injury or disease. Inflammation-driven immune cell migration is orchestrated via chemokine receptor-ligand pairs that are ubiquitously expressed in innate immune cells and are hyperactivated in many pathologies.

Method for BMDMs: GSH /GSSG, lactate dehydrogenase (LDH) and DCFDA assays were performed according to the manufacturer's instructions.

For `CC(=O)N[C@@H](CS)C(=O)O` [NAC, N-Acetyl-L-cysteine, reference compound], in the data set on BMDMs, the GSH levels result was “In contrast to classic antioxidant NAC, CCTV was unable to restore GSH levels” and the GSSG levels entry is “In contrast to classic antioxidant NAC, CCTV was unable to restore GSH levels or reduce GSSG”.
On to “ALLC [B4, ALLC peptide-lipid conjugate nanoparticle, N-terminus conjugation]”, for which, in data set [1], the “Mean Polydispersity Index (PDI)” value stood at 0.151 and the “Size (Mean Z average)” value was 86 nm.
In the same order, the values of “ALLC [C4, ALLC peptide-lipid conjugate nanoparticle, SH conjugation]” are 0.002 and 79 nm.
For the molecule CCTV [N-term CCTV], in data set [2], the “active (cleaved at Asp175, p19/17) caspase 3” value is given as “upregulation; also recorded: significant apoptosis-associated caspase-3 activity” and the “heme oxygenase-1 (HO-1) levels” value is reported as “upregulation; also recorded: increased”. In the data set with RAW cells, the “apoptosis and cell death” value was “significant apoptosis and cell death”.
As for “DKQT [B1, DKQT peptide-lipid conjugate nanoparticle, N-terminus conjugation]”, in data set [1], the “Mean Polydispersity Index (PDI)” value is given as 0.176 and the “Size (Mean Z average)” value worked out at 204 nm.
In the same order, the values of “HLDK [B3, HLDK peptide-lipid conjugate nanoparticle, N-terminus conjugation]” are 0.257 and 61 nm.
“IVAK [B2, IVAK peptide-lipid conjugate nanoparticle, N-terminus conjugation]”: in data set [1], the “Mean Polydispersity Index (PDI)” value is given as 0.058 and the “Size (Mean Z average)” value stood at 53 nm.
In the same order, the values of “KISV [A4, KISV peptide-lipid conjugate nanoparticle, N-terminus conjugation]” are 0.09 and 114 nm.
For the molecule “KTIV [A6, KTIV peptide-lipid conjugate nanoparticle, N-terminus conjugation]”, in data set [1], the “Mean Polydispersity Index (PDI)” value stood at 0.054 and the “Size (Mean Z average)” value is 142 nm.
In the same order, the values of “KVSA [A2, KVSA peptide-lipid conjugate nanoparticle, N-terminus conjugation]” are 0.124 and 110 nm.
In the same order, the values of “LLIA [A3, LLIA peptide-lipid conjugate nanoparticle, N-terminus conjugation]” are 0.162 and 134 nm.
In the same order, the values of “LLLI [B6, LLLI peptide-lipid conjugate nanoparticle, N-terminus conjugation]” are 0.152 and 223 nm.
Turning to “MDHL [C2, MDHL peptide-lipid conjugate nanoparticle, N-terminus conjugation]”, in data set [1], the “Mean Polydispersity Index (PDI)” value is 0.111 and the “Size (Mean Z average)” value is reported as 134 nm.
In the same order, the values of “MKVS [C1, MKVS peptide-lipid conjugate nanoparticle, N-terminus conjugation]” are 0.159 and 189 nm.
In the same order, the values of “QDSM [B5, QDSM peptide-lipid conjugate nanoparticle, N-terminus conjugation]” are 0.169 and 198 nm.
Consider “RLAS [A1, RLAS peptide-lipid conjugate nanoparticle, N-terminus conjugation]”, for which, in data set [1], the “Mean Polydispersity Index (PDI)” value is recorded as 0.198 and the “Size (Mean Z average)” value is given as 93 nm.
VTCC [A5]: in data set [1], the “Mean Polydispersity Index (PDI)” value stood at 0.141 and the “Size (Mean Z average)” value stood at 76 nm. In data set [2] (listed as N-term VTCC), the “active (cleaved at Asp175, p19/17) caspase 3” value is listed as “upregulation” and the “heme oxygenase-1 (HO-1) levels” value is given as “upregulation”. In addition, in the data set with RAW cells, the “apoptosis and cell death” value is “significant apoptosis and cell death”.
As for “canakinumab: interleukin-1 beta (IL-1β) neutralizing monoclonal antibody”, the cardiovascular events result in data set [3] (cardiovascular disease) is given as “a reduction in cardiovascular events”. Moreover, the “risk of death from infection and sepsis” value in data set [3] is “significantly increased risk of death from infection and sepsis”.
